Experimental data: the supplement of paper PMC10266784

B1: library; numbered along this chain (parent)
chain: MAAAAAAAAEQQSSNGPVKKSMREKAVERRSVNKEHNSNFKAGYIPIDEDRLHKTGLRGRKGNLAICVIILLFILAVINLIITLVIWAVIRIGPNGCDSMEFHESGLLRFKQVSDMGVIHPLYKSTVGGRRNENLVITGNNQPIVFQQGTTKLSVENNKTSITSDIGMQFFDPRTQNILFSTDYETHEFHLPSGVKSLNVQKASTERITSNATSDLNIKVDGRAIVRGNEGVFIMGKTIEFHMGGNMELKAENSIILNGSVMVSTTRLPSSSSGDQLGSGDWVRYKLCMCADGTLFKVQVTSQNMGCQISDNPCGNTH

Variants of: B1
Assay: SGCB cell-surface expression functional score (HA stain, bin4 vs bin1, normalised to synonymous) (log10 ratio); higher = more cell-surface SGCB (functional)
Description: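 Deep mutational scan of full-length human SGCB (YFP-SGCB-HA, NNN codon sublibraries A-F) delivered by lentivirus at low MOI into ADG-HEK293 cells stably expressing SGCA, SGCD and SGCG. YFP-positive cells were stained for surface HA on unpermeabilized cells and FACS-sorted into bins. The functional score is log10(frequency in high bin 4 / frequency in low bin 1), normalised per chunk so that synonymous variants have mean 0 and SD 0.5. Scores are the median over codons and over duplicate biological replicates; scores below -0.5 are called non-functional. Scale: negative means deleterious.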

SGCB cell-surface expression functional score (log10) of substitutions, site by site:
K152: Q -0.46, H -0.48, E -0.38, D -0.66, I 0.14, C 0.03, M -0.19, L -0.53, N -0.11, G -0.57, R -0.22, A 0, P -0.94, F 0.02
I144: N -0.97, Q -0.96, T -0.64, S -0.8, G -0.85, M -0.89, W -1.4, C -0.33, A -0.98, L -0.46, V 0.47, D -0.57, R -1.06, E -1.11, Y -1.1, H -0.73, P -1.22, K -1.07, F -0.77
Q147: L -0.21, P -0.68, G -0.41, S 0.16, I -0.06, D -0.27, F -0.65, Y -0.42, W 0.33, T -0.47, M -0.04, E 0.33, A 0.19, V 0.26, N 0.29, H -0.39, R -0.06, K 0.26, C 0.5
F146: G -0.94, V -0.32, D -1.36, P -1.14, Q -1.34, E -0.7, I 0.28, H -0.89, R -1.45, N -1.08, M -0.56, K -0.93, T -1.45, W -1.15, L 0.18, C -0.47, Y -0.75, A -1.22, S -0.84
P143: V 0.07, Y -0.63
T150: P -0.37, C 0.25, H 0, R -0.26, Q -0.12, K -0.14, S -0.15, G -0.22, I 0.04, L -0.19, V -0.25, F -0.59, Y 0, N 0.07, W 1.1, D 0.59, E -0.57, M -0.99, A -0.2
T151: Q -0.98, Y -1, D -1.17, K -0.7, M -1.13, N -0.56, W -1.19, C -0.22, L -1.22, R -1.06, S 0.27, I -0.82, G -0.94, A -0.08, H -1.24, E -1.31, F -1, V -0.15, P -0.64
G149: L -0.34, A -0.43, C -0.49, R -0.54, S -0.12, H -0.28, V -0.88, M -0.18, D -0.25, K -0.63, T -0.75, E -0.93, W -0.54, I -0.64, P -1.17, N 0.19, F -0.45, Q -0.01, Y -0.57
Q148: N -1.26, L -0.18, I -0.28, K -0.27, T 0.08, G 0.33, F -0.38, C 0.39, A 0.12, R 0.02, S 0.42, H -0.24, Y -0.25, E -0.58, P -1.36, W 0.01, D -0.54, V 0.28
V145: F -0.11, Y -0.43, N -0.26, T 0.04, I 0.52, R -0.43, G -0.81, A -0.01, L -0.09, W -0.57, E -0.03, M -0.9, C -0.73, S -0.31, P -1.15, H -0.24, D -0.79, Q -0.39, K -0.12
